The source of these data is PMC8716928.

This experiment concerns the target Fragment F109–221 of GvpF, split-GFP fusion (Halobacterium salinarum). In words: split reporter (BiFC, NanoBiT); split-GFP (mGFP2) in Hfx. volcanii transformants, entire Gvp proteins and fragments (Figure 7); arrangement of the GFP portions not stated; relative fluorescence (rf) of cells against untransformed WR340.

B1: Fragment A1–22 of GvpA, split-GFP fusion (peptide)
chain: MAQPDSSGLAEVLDRVLDKGVV
In turn, B1 displayed a relative fluorescence (rf) below 4 rf.

B2: GvpA, entire protein, split-GFP fusion (natural protein)
chain: MAQPDSSGLAEVLDRVLDKGVVVDVWARVSLVGIEILTVEARVVAASVDTFLHYAEEIAKIEQAELTAGAEAAPEA
On to B2, for which the relative fluorescence (rf) was below 4 rf.
